Source: the DeepSol protein solubility set

Assay: soluble on expression in E. coli; label from the status in PepcDB or PDB records

Soluble on expression in E. coli, not soluble:
MGSDKIHHHHHHMKTFHNEEIYIKTDNFSDSIFKENTMFFDIETTGFSPVKAIVYMIGCARRIKNRIVIDQYFAESVDDEAAVIEAFAGSLSGCSTIISFNGVGFDIPFLKNKYKKYKQEDPFCNVQILDIFKELSPIKPLLCLENYKQKSIEAFLGIDREDKYSGGELINVYYEYLAQKDDEKLSLLLTHNYEDVLGMTKLLSILSYKECIHGIADITGVSVNPYTAYDGSLMNELIISFENKFSVPKSVSFHDNDIYLTIGTTKSYVRAEIFEGEMRHFYSDYKNYYYLPKEDMAIHKSVAAYVDHEYREKCKAYNCYVRKTGTFIRQYSDFMKPEFRFDIKDKYSYFLLTEDFINSKQMVLSYVKHITDHLFNL
MGSDKIHHHHHHMKTIEVLSLRKYFPIRKGFLVKKIVGYVKAVDDISFSVEKGKTFALVGESGCGKTTTAKTILRLTNPTAGRVVIDGDDTTYYFMKRRDAENYLETTYVDIFREMREKLSPDQIVDVLEDVDKKYAEIFFKEAKESEEKFYQILLDDIDEKRMKFRRKIQIVFQDPMSSLNPRMTVGDILTEPILFHGLAKTREEAVDMAKDLLKSVGLKEYHLERYPHQFSGGQRQRIAIARAISINPEIVILDEPTASLDVSVQAQVINLFLKLQEEKGFTYLFISHDLGLVRFISHEVGIMYLGRIVEMGNTDEIFDNPLHPYTQALLSAVPVPDPKVERTRKRIILRGGVPSPINRPTGCFFHPRCPYKMPVCEKEYPVMKEISPGHWVACHLHSS
MGSDKIHHHHHHMKTIQPIDWLQPKTEAEEIRFRSTGFRWGNKGTHTSRTIMLDELRALLNYSRPDATRDDYVSVIIEDNCLGKRTASTRKLSLQRLSELYALDPKVLLFQLMRYFWYADRSGQAILPLLLALARDPLLRATAASVLCMHPGEEFARQPMTDALNQAAGGRFNEGTLNKIVRNAASSWTQTGHLKGRSHKVRQSIAPTAITTAYALLLGYLTGTRGAKLFETPWAQALDTPPSTLMHLAMDARRLGFLDMSQSGGIVELGFSRLLPLDERR
MGSDKIHHHHHHMKTLGERSKERRKIINLTQLQLSKKVGVSSVTISQWESGDTSPKGENLYKLAQALQCSPDWLMFGDSKNTKKPESNAEWAGGFDLWDNDSPLGEDEVEIPFYMDVELSAGEGIAEGVEYKGPKLRFAKSSLKRQGVNTDHAACVKVNGNSMEPVLPHGSTVGVDTSATEIVDGKMYAINHDGMMRVKMLYKLPGGGLRLRSYNTDEWPDEHINNEQLKNIKVIGKVFWYSVLL
MGSDKIHHHHHHMKTVIIVQARMTSTRLPGKVLKKVLDKPLLEYQIERLKRVKLADEIVIATTINSTDLPIIELCDRLSIPYFLGSEEDVLTRYYGAAKEHQADVVVRITSDCPLIDPLVINKVIQFFLDYRHECDYVSNSLERTYPRGMDTEVFSFLALHQAFVEAIAQPDREHVTPFIYMHPERYRLAQVVYSENQSSHRWTVDTADDFELIKRIIETLYPEIPKFTLEDCLDLFREYPDWSLINAHVEQKKYAA
MGSDKIHHHHHHMKVALRKTIGERLLELAKQDEKIVVVTSDARGSAAIADFFKVFPERSIEVGIAEQTAAGVAAGLALCGKKAWVFGPACFYSARNLEQIKNDIAYSDANVKIVAVSGGVSYGPLGSTHHALHDVAVMRAIPNLKVLLPSDAVLAAAILEQLLKDEKPVYMRTGRNPVPVIYSRDEKFEVGRAITLKEGNDITIIATGEVVWRALEAAKILEKEGISARVIDMFTVKPLDEEAVFRAARETGRIVTVEEHSIFGGLGGAVAEFLSQNLPTPMKILGIPDEYPVTGTQDEVLKHYGLAPEGIAKTVLEWFKEGN
MGSDKIHHHHHHMKVKIGDLTKIKTGKLDANVSSEDGKYPFFTCSKEPLKISTYSYDCECVLVAGNGDLNVKYYNGKFDAYQRTYIIEANGSGKLYMPYLYYFMEDYIDELRKQAIGGVIKYIKLANLTDALIELPSVDEQKSIVEILKKVKGILDKRNDEIRELDNLIKARFVEMFGDPRSNPFGFEKKRLKDTCKVITGNTPSRAIEEYYGDYIEWIKTDNIVSGILNPTQATESLSEKGMNVGRTVEKDSILMACIAGSIASIGRVCITDRTVAFNQQINAVVPEQYNILFLYVLFQMSKDYLVEDINMALKGILSKSKLEEKEFIIPPMDLQEQFSDFVKQVDKSKFDTMTFAPIYAIINLYLHTYFYQGRR
MGSDKIHHHHHHMKVMKDYKLMAVGQIVADCFDYAKVFNKYGIDFCCNGDVSLADACGKMGIDADCLLEELKQIKSEQSLTLDFKSWPIDLLVDYILKFHHRNIRYQGPQILQLLDRVCEAHAGKHPELYEVRELFQESWIDLNNHLTKEEMVLFPYIYDLFDAVAQHRPIPAFHCGSVSSPISVMMSEHDAEGERFRRISGLTHGYLVPGDACSSYRLLLEMLRTFEDNLHHHIHLENNIVFPKAIELQENCE
MGSDKIHHHHHHMKVTLIGIDLAKNVFQVCGINQAGKSVFNRALKRSQLMAFLFKYPDSIIAMEACSGSNYWGRELLTKGFEVRLIPPQHVKPFVKGNKNDRNDAFAICEAALRPNLTFVQPRTLEQTDMILAHRIRERNVENRTSLINQIRGLLNEYGVVIAQGKERLKLAIPELLENADSGLTEIARQHFQALLEEWKQVDRTIKNLEKNIKSQAKLNHQTNRLMGIKGVAEITATAAVAFAGNGAQYHNGRHFAANLGLVPREYSSGGKQKLGKITKRGNNYLRRLLVQGAWSIIRYVGNSTDRMSVWAKKLIERRGKHKAAVAVANKLARIIWSMLYNQTEYRAN
MGSDKIHHHHHHMKVTLKTLTPLHIGSGEKYPPCNLVVLKEEENKKTAVRLITRKFLEVLRKHPEIKQNISENISKPLSFKEVENVEDGVFYEVSLYSDFSSGKKNPEIPEVVHHPDGSVYVPGSSLKGAVRLALTWHVLRNNRNLLEEFRRNVQKDLQNHKRAFYQTNEFLNGLFRFAPKEINTDYFRFLRVSDSQTLRTQLVVHDVGIFYVARPNTHPRTFPLEFVPINRDFVFDVRFVKEEYDYFLTHVRKRYGVELPGSIEEIFSIVNEFYSEVFKFERERFKKAKENFEKLDTSKIEERFQKIEKVLQSKKYVLIHIGYGGGLMANSLFILLDEETRKQVRNIIKYHKDDEAPLTRRYLVQSENNSYRVISPIGWCALWLEDSQST
MGSDKIHHHHHHMKYSPASETIFVADNQERTMRVEVMEHYGLTQSIEQAGYYETAHHKQLMKDIKGAIREGRLIAVCGVVGSGKTVTLRRLQQQLLDENKIIVARSLSVDKQSVRLATLINALFYDLAQDKQVQIHKQGERRERELQELVKKGKRPVALFVDEAHDLNGNTLTGLKRLMEVVEDGGGRLSVVLAGHPKLRNDLRRPTMEEIGYRTDIFTLDGITGSQREYIQWLLKTSTGKGKPEDILTTEAVDLLAMKLRTPLQVQLHLTLAMEAGYQTGEKPITATLVESVLSRQLDDLEPTLTRHGYRLKDMVEQFDAKPAEIRALFNNQLDPARTAELRDRMLAVGLPI
MGSDKIHHHHHHMKYTIEEIRQMQEGQTFDCKSILIEPKHLATIIVAMANADGGMIAVGISDKTRRIEGVNQDKEHLNDILRTPLDFCVPSVSVTTDYVPCTDAEGRDNRVLLMHIPASPRLHANQADEVFWRVGDKSRKLTFDERLQLMYDKGERYYEDSTAYDATLDDIDMDAVKAYMKRIGYGKSAMEYLQENKGFVTYKGDVPQVSAACILLFGKHPQTFFPRARVRFIKYFGTEEKVGREMNVIKDVTFDGRILEQIQKTVEYLETQVKEHSYLGEDGIFKTDREYPKFVIQEMVVNSVCHRDYSIKGTEIQIKMFDDRLVFETPGKLPGIVRTDNIRHTHFSRNPKIAEFLKAYDYVKEFGEGVDRMCRELSALGVKEPQYNLVAFIMKATVCAKVLEERQGTNHFDQKRPESDQKSDQMRIILELIKSNPNISRTELSEKTGLHDSSVKRRLKTLVDEGLIQRVGPDKGGQWKVIGSL
MGSDKIHHHHHHMLARDKSNLKIEEIRMHKHHEIHRVKPLMPALCRIRQGKKVINWETHSLTVDNNQIILFPCGYEFYIVNYPEAGLYLAEMLYYPIDLIEKFQKFYAITDQIRNTTGFCLPQNPELIYCWEQLKTSISRGFSTQIQEHLAMGVLLSLGAHHVNCLLLSDSKQSLISRCYNLMLSEPRTKWTANKVARYLYISVSTLHRRLASEGISFQSILDDVRLNNALSCYTNDSKTHQRDCQGKWLQVSFSFY
